These results are taken from patent publication US20130022601A1 (Hoffmann-La Roche, published 2013).

One assay concerns the target T1, Her3 (ErbB3) receptor (human, UniProt P21860 20-1342).
T1 construct: whole, on cells; Endogenous receptor on human cancer cell lines
The assay can be described thus: flow cytometry on A431 cells, PE-coupled anti-human Fc secondary antibody. Here is the method:
(§1) A431 were detached and counted. 1.5×10e5 cells were seeded per well of a conical 96-well plate. Cells were spun down (1500 rpm, 4° C., 5 min) and incubated for 30 min on ice in 50 μL of a dilution series of the respective bispecific antibody in PBS with 2% FCS (fetal calf serum). Cells were again spun down and washed once with 200 μL PBS containing 2% FCS followed by a second incubation of 30 min with a phycoerythrin-coupled antibody directed against human Fc which was diluted in PBS containing 2% FCS (Jackson Immunoresearch, 109116098). Cells were spun down washed twice with 200 μL PBS containing 2% FCS, resuspended in BD CellFix solution (BD Biosciences) and incubated for at least 10 min on ice. Mean fluorescence intensity (mfi) of the cells was determined by flow cytometry (FACS Canto, BD). Mfi was determined at least in duplicates of two independent stainings Flow cytometry spectra were further processed using the FlowJo software (TreeStar). Half-maximal binding was determined using XLFit 4.0 (IDBS) and the dose response one site model 205.
(§2) The binding properties of the bispecific antibodies to their respective receptor on the cell surface was analyzed on A431 cancer cells in a flow cytometry based assay. Cells were incubated with the mono- or bispecific primary antibodies and binding of these antibodies to their cognate receptors was detected with a secondary antibody coupled to a fluorophore binding specifically to the Fc of the primary antibody. The mean fluorescence intensity of a dilution series of the primary antibodies was plotted against the concentration of the antibody to obtain a sigmoidal binding curve. Cell surface expression of c-Met and Her3 was validated by incubation with the bivalent 5D5 and Her3 clone 29 antibody only. The Her3/c-Met_KHSS antibody readily binds to the cell surface of A431.
(In flow cytometry, cells or beads pass a laser one at a time.)

The target of another assay is T2, c-Met receptor (human, UniProt P08581 25-1390).
T2 construct: whole, on cells; Endogenous receptor on human cells
T2 sequence (P08581 25-1390): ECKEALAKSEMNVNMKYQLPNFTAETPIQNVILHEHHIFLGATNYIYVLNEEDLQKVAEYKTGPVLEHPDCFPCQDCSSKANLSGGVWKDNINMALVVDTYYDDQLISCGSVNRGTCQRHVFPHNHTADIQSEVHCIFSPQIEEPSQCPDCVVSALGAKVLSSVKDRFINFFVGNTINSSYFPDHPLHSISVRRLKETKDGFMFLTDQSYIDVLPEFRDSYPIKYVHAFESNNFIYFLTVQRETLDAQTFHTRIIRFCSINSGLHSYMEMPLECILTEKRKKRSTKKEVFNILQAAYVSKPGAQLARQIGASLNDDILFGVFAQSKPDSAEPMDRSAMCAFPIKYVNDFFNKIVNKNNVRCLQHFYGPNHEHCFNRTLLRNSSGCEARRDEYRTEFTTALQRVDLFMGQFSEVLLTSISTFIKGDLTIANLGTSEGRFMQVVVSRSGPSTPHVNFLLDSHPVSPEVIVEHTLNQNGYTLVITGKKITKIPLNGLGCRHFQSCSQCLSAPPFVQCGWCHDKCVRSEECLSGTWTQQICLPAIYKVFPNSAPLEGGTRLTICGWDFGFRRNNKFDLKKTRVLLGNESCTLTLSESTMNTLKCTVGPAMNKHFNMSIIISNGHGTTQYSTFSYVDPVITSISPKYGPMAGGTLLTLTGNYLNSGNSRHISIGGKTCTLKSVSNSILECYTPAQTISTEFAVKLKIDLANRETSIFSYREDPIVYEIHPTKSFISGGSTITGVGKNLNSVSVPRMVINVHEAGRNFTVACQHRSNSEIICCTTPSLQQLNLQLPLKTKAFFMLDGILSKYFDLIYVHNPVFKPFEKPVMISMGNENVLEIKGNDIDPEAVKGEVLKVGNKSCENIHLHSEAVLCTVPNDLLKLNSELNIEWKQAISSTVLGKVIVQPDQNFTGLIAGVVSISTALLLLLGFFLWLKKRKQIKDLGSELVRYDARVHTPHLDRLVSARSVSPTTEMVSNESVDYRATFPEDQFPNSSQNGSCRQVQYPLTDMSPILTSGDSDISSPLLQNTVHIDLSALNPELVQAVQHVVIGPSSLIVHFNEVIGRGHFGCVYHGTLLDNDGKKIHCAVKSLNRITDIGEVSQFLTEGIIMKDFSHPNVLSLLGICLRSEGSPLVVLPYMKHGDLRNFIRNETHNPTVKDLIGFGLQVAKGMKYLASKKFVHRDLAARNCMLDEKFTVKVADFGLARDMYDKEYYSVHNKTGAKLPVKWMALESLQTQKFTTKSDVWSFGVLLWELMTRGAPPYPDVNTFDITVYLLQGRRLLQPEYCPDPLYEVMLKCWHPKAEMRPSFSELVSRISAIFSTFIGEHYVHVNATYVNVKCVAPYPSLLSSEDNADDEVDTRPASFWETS
Described as above. As for the experimental part: as §1, §2

T1 sequence (P21860 20-1342): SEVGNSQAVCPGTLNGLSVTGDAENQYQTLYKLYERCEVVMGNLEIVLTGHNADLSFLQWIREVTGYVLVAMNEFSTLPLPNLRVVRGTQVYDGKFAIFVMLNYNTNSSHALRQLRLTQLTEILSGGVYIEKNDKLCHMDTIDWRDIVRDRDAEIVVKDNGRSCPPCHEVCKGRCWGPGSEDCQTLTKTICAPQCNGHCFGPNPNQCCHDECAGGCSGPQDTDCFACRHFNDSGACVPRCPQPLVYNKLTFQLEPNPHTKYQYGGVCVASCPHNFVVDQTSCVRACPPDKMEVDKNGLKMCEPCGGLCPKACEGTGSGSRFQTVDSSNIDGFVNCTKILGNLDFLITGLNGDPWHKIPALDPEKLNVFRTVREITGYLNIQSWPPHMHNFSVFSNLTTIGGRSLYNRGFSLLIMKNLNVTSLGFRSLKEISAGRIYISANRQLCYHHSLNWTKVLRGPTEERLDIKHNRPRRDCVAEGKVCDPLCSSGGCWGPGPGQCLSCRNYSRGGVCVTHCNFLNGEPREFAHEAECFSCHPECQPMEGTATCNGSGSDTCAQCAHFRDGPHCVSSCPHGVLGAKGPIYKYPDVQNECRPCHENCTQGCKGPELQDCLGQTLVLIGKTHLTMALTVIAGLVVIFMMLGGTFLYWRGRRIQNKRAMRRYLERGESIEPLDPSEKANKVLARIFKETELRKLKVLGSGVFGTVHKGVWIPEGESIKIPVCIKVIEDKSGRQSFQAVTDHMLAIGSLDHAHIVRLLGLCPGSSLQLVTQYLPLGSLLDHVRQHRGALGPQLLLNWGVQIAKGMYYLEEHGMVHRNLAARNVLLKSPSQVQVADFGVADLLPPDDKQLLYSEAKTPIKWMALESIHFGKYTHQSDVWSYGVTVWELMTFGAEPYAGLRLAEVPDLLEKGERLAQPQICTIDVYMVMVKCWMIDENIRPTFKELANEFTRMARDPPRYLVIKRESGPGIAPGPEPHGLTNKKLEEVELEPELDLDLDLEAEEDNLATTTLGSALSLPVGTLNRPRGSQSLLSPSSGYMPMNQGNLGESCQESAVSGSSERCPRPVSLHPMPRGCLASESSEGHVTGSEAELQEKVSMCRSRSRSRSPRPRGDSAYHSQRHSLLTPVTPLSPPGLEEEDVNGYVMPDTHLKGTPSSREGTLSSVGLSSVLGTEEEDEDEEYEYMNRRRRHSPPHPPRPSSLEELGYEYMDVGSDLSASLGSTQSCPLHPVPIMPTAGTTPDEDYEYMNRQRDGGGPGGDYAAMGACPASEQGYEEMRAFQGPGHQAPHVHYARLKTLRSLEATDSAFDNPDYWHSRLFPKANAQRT

B1: <ErbB3> HER3 clone 29 antibody (antibody, human IgG1, kappa, V domains shown)
VH: DVQLQESGPGLVKPSQSLSLTCSVTGYSITSAYYWNWIRQFPGNKLEWMGYISYGGSNSYAPSLKNRFSITRDTSKNQFFLKLNSVTTEDTATYYCARESDYAYFDYWGQGTTLTVSS
VL: DIQMTQTTSSLSASLGDRVTISCRARQDISNYLNWYQRKPDGTVKLLIYYTSRLHSGVPSRFSGSGSGTDYSLTISNLEQEDIATYFCQQGNTFPWTFGGGTKLEIKR
notes: Bivalent parental antibody (chimeric), with unmodified heavy and light chains; also called parental Her3 clone29
For B1, in the assay with Her3 (ErbB3) receptor, the binding result is recorded as “binds”.

B2: trivalent, bispecific <ErbB3-c-Met> antibody Her3/Met_KHSS (bispecific antibody, human IgG1, kappa)
heavy 1: not shown
heavy 2: not shown
light: DIQMTQTTSSLSASLGDRVTISCRARQDISNYLNWYQRKPDGTVKLLIYYTSRLHSGVPSRFSGSGSGTDYSLTISNLEQEDIATYFCQQGNTFPWTFGGGTKLEIKRTVAAPSVFIFPPSDEQLKSGTASVVCLLNNFYPREAKVQWKVDNALQSGNSQESVTEQDSKDSTYSLSSTLTLSKADYEKHKVYACEVTHQGLSSPVTKSFNRGEC
notes: Full length Her3 clone 29 (chimeric) antibody with knobs-into-holes and CH3 disulfide mutations
Consider B2, for which, in the assay with Her3 (ErbB3) receptor, the binding result is on record as “binds”.

B3: <c-Met> Mab 5D5 (antibody, human IgG1, kappa, V domains shown)
VH: EVQLVESGGGLVQPGGSLRLSCAASGYTFTSYWLHWVRQAPGKGLEWVGMIDPSNSDTRFNPNFKDRFTISADTSKNTAYLQMNSLRAEDTAVYYCATYRSYVTPLDYWGQGTLVTVSS
VL: DIQMTQSPSSLSASVGDRVTITCKSSQSLLYTSSQKNYLAWYQQKPGKAPKLLIYWASTRESGVPSRFSGSGSGTDFTLTISSLQPEDFATYYCQQYYAYPWTFGQGTKVEIKR
notes: Bivalent 5D5 antibody (humanized), with unmodified heavy and light chains; also called bivalent 5D5; c-Met 5D5
As for B3, the binding result with c-Met receptor is on record as “binds”.
